# Measured values published in PMC5814829.
# Like-named read-outs stand apart in the source and are kept apart here.
# T1: ScPif1p (237-780) (Saccharomyces cerevisiae, UniProt P07271 237-780)
# T1 sequence: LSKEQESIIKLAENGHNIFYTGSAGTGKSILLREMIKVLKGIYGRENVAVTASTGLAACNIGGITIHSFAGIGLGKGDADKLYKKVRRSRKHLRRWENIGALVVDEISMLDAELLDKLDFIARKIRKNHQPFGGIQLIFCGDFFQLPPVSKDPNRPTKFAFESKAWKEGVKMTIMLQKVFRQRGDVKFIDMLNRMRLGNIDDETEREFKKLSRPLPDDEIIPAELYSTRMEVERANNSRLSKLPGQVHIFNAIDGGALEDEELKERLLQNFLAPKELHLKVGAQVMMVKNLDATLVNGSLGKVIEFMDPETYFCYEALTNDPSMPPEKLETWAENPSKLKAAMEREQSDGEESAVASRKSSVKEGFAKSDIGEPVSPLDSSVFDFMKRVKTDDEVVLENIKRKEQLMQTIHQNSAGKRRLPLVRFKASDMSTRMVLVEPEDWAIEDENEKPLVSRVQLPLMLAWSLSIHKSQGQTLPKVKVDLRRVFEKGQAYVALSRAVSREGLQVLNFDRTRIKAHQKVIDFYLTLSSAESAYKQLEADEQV
# T2: ScPif1p H303G/H705G (Saccharomyces cerevisiae, UniProt P07271 237-780, H303G;H705G)
# T2 sequence: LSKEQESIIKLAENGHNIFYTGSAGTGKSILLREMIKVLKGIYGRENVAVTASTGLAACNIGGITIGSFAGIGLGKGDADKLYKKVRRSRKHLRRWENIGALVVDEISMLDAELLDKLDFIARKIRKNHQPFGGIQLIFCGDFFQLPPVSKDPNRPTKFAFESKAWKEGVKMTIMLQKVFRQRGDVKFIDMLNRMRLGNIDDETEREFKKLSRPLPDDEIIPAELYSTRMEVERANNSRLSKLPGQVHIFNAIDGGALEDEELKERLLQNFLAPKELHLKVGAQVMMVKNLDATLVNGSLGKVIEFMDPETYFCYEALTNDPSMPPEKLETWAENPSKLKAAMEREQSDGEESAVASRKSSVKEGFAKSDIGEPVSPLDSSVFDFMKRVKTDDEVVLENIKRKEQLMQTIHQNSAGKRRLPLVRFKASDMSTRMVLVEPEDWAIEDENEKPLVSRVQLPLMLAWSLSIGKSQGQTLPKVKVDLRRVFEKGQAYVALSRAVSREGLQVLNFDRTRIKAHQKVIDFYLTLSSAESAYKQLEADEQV
# Assays:
# ScPif1p (237-780) [1] = target: T1, ScPif1p (237-780); assay: crystal structure
# ScPif1p (237-780) [2] = target: T1, ScPif1p (237-780); assay: crystal structure; remark: listed apart in the source
# ScPif1p H303G/H705G = target: T2, ScPif1p H303G/H705G; assay: fluorescence anisotropy
# ScPif1p (237-780) [3] = target: T1, ScPif1p (237-780); assay: fluorescence anisotropy
# ScPif1p (237-780) [4] = target: T1, ScPif1p (237-780); assay: SEC-SAXS, gel filtration
# ScPif1p (237-780) [5] = target: T1, ScPif1p (237-780); assay: SEC-SAXS
# ScPif1p (237-780) [6] = target: T1, ScPif1p (237-780); assay: SEC-SAXS, gel filtration; remark: listed apart in the source
# ScPif1p (237-780) [7] = target: T1, ScPif1p (237-780); assay: fluorescence anisotropy; remark: listed apart in the source
binder,measurement,setting,value
TTTTTTTT (ssDNA) [Poly(T8)],binding result,ScPif1p (237-780) [1],binds
TTTGGGTT (ssDNA) [Poly(T3G3T2)],binding result,ScPif1p (237-780) [2],binds
GGGTTTTT (ssDNA) [Poly(G3T5)],binding result,ScPif1p (237-780) [2],binds
CUCUGCUCGACG (ssRNA) [F-RNA12 (text: Poly(U12))],Kd,ScPif1p H303G/H705G,70.5 nM
same,Kd,ScPif1p (237-780) [3],163 nM
TTTTTTTTGGGTGGGTGGGTGGGT (structured_DNA) [8T3G4],binding result,ScPif1p (237-780) [4],binds
GTGTGGTGTGG (ssDNA) [GR11],binding result,ScPif1p (237-780) [5],binds
AGGGTTAGGGTTAGGGTTAGGG (structured_DNA) [3G4],binding result,ScPif1p (237-780) [6],binds
TTTTTTTTTTTT (ssDNA) [Poly(T12)],Kd,ScPif1p (237-780) [7],15.1 nM
